In publication PMC8953729:

Tests used:
[1] = target: Tyr11 (position 11, …--); assay: potentiometry; conditions: metal-free peptide
[2] = target: Nterm1 (position 1, -----MDHSHH); assay: potentiometry

MDHSHHMGMSYMDS
pKa ([1]; 298.0 ± 0.2 K, 0.10 M (KNO3), none (titration with 0.1 M KOH under argon)): 9.64 | pKa ([1]; cited from earlier work): 9.84 | pKa ([2]; 298 K, 0.1 mol dm^-3 (KNO3), mononuclear Ag+ complex ([AgLH2] to [AgLH]), Ag+/peptide ratios 1:1, 1:2 and 2:1): 7.33 | pKa ([2]; 298.0 ± 0.2 K, 0.10 M (KNO3), none (titration with 0.1 M KOH under argon), metal-free peptide): 7.63 | pKa ([2]; metal-free peptide, cited from earlier work): 7.46
